Drawing on patent US20220372112A1 (KEYMED BIOSCIENCES, published 2022), this text covers binding result and EC50 for 19 molecules.

The target of one assay is T1, human Claudin 18.1 (human, UniProt P56856 1-261).
T1 construct: whole, on cells
T1 sequence (looked up): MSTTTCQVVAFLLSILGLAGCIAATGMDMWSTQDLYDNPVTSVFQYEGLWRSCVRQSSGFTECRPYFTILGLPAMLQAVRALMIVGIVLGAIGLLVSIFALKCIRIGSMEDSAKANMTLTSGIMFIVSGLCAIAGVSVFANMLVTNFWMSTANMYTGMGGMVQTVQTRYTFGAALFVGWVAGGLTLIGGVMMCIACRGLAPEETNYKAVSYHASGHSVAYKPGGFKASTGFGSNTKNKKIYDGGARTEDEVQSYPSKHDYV
In words: flow cytometry on HEK293-Claudin 18.1 cells, chimeric IgG1. As to the method:
(§1) The HEK293-Claudin 18.1 cells, HEK293-Claudin 18.2 cells and HEK293 cells at logarithmic growth phase were taken, after digesting, added at 5×10⁴ cells/100 μL to the U-shaped 96-well plate, centrifuged at 1100 rpm for 3 minutes, the supernatant was discarded, the cells were gently patted and loosed, 50 μL of antibody diluted according to the series was added to each well (antibody concentration starts from 100 nM, 5 times dilution in 8 series), and incubate at 4° C. for 1 hour. After the incubation, 140 μL 0.5% BSA was added to each well to wash 3 times, the secondary antibody AlexaFluro647 anti-human IgG (Jackson ImmunoResearch, catalog number: 109-606-170) was added with 30 μL/well, and incubated at 4° C. for 40 minutes. After the incubation, 140 μL 0.5% BSA was added to each well to wash 3 times, and finally resuspended each well with 50 μL PBS for flow cytometry (iQue Screener) detection.
A general note: A flow cytometer gives signals particle by particle.

Assay [1] addresses T2, human Claudin 18.2 (human, UniProt P56856-2 1-261).
T2 construct: whole, on cells
T2 sequence (looked up): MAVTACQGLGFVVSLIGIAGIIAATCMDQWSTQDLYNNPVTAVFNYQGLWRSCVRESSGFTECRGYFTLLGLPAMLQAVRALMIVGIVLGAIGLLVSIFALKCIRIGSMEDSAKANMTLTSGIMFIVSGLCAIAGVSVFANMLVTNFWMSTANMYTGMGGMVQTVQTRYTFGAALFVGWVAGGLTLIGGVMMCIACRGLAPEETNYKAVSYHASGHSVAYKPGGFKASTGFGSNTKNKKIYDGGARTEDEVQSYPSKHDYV
The experiment in a line: flow cytometry (iQue) on HEK293-Claudin 18.2 cells, chimeric IgG1. Here is the method: as §1

Assay [2] addresses T2, human Claudin 18.2. The experiment in a line: flow cytometry (iQue) on cells, antibody from 100 nM in 5-fold steps; cell line not named in Example 5. As to the method: The cells at logarithmic growth phase were taken, blocked with 3% BSA for 30 minutes, plated at 5×10⁴ cells/100 μL into a U-shaped 96-well plate, centrifuged at 1100 rpm for 3 minutes, the supernatant was discarded, the cells were gently patted and loosed, 50 μL of antibody diluted according to the series was added to each well (antibody concentration starts from 100 nM, 5 times dilution in 8 series), incubated at 4° C. for 1 hour. After the incubation, 140 μL of 0.5% BSA was added to each well to wash 3 times, AF 647 APC anti-human secondary antibody was added with 30 μL/well and incubated at 4° C. for 40 minutes. After the incubation, 140 μL of 0.5% BSA was added to each well to wash 3 times, and finally resuspended each well with 50 μL PBS for iQue (Intellicyt, USA) detection (shown in Table 2).

B1: 9C9 (antibody, V domains shown)
VH: EVQLKESGPGLVAPSQSLSITCTVSGFSLTNYGVSWIRQPPGKGLEWLGAIWAGGNTNYNSALMSRLSIRKDNSKSQVFLKMNSLQTDDTAMYYCARVGYGNSFANWGQGTLVTVSA
VL: DIVMTQSPSSLTVTAGEKVTLSCKSSQTLLNSGNQKNYLTWYQQKPGQPPKLLIYWASTRESGVPDRFTGSGSGTDFTLTISSVQAEDLAVYYCQNNYFYPLTFGAGTRLEIK
notes: also called Clone 9C9
On to B1, for which the binding result with human Claudin 18.1 is recorded as “no binding (tested: 100 nM (highest concentration tested))”. The molecule also registered a 50% effective concentration (EC50) in the assay with human Claudin 18.2 [1] of 1.46 nM.

B2: 25A5 (antibody, V domains shown)
VH: EVQLKESGPGLVAPSQSLSITCTVSGFSLTNYGVSWIRQPPGKGLEWLGAIWAGGNTNYNSALMSRLSIRKDNSKSQVFLKMNSLQTDDTAMYYCARVGYGNSFANWGQGTLVTVSA
VL: DIVMTQSPSSLTVTAGEKVTMSCKSSQSLLNSGNQRNYLTWYQQKPGQPPKLLIYWASTRESGIPDRFIGSGSGTDFTLTISSVQAEDVSVYYCQNNYIFPLTFGAGTKLEIK
notes: also called Clone 25A5
For B2, the binding result with human Claudin 18.1 is “no binding (tested: 100 nM (highest concentration tested))”. The same molecule registered a concentration giving a half-maximal response (EC50) with human Claudin 18.2 [1] of 0.19 nM.

B3: 15D11 (antibody, V domains shown)
VH: QVQLQQSGPGLVAPSQSLSITCTVSGFSLTNYGVSWIRQPPGKGLEWLGAIWAGGNTNYNSALMSRLSIRKDNSKSQVFLKMNSLQTDDTAMYYCARVGYGNSFANWGQGTLVTVSA
VL: DIVMTQSPSSLTVTAGEKVTMSCKSSQSLLNSGNLRNYLTWYQQKPGRPPKLLIYWASTRESGVPDRFTGSGSGTDFTLTISSVQAEDLAVYYCQNNYFYPLTFGAGTKLELK
notes: also called Clone 15D11
Regarding B3, the binding result with human Claudin 18.1 is reported as “no binding (tested: 100 nM (highest concentration tested))”. This molecule also showed an EC50 with human Claudin 18.2 [1] of 0.21 nM.

B4: 18D10.V13 (antibody, V domains shown)
VH: QVQLQESGPGLVKPSETLSLTCTVSGGSISSNYAWNWIRQPPGKGLEWIGYINYSGNTNYNPSLKSRVTISRDTSKNQFSLKLSSVTAADTAVYYCATSYYGNSFIYWGQGTLVTVSS
VL: DIVMTQSPDSLAVSLGERATINCKSSQSLLNSGNQKNYLTWYQQKPGQPPKLLIYWASTRESGVPDRFSGSGSGTDFTLTISSLQAEDVAVYYCQNAYSFPWTFGQGTKVEIK
notes: Humanized; also called 18D10VLv1 + 18D10VHv3
The molecule B4 returned an EC50 in the assay with human Claudin 18.2 [2] of 0.912 nM.

B5: 18D10.V12 (antibody, V domains shown)
VH: QVQLQESGPGLVKPSETLSLTCTVSGGSISSNYAWNWIRQPPGKGLEWMGYINYSGNTNYNPSLKSRITISRDTSKNQFSLKLSSVTAADTAVYYCATSYYGNSFIYWGQGTLVTVSS
VL: DIVMTQSPDSLAVSLGERATINCKSSQSLLNSGNQKNYLTWYQQKPGQPPKLLIYWASTRESGVPDRFSGSGSGTDFTLTISSLQAEDVAVYYCQNAYSFPWTFGQGTKVEIK
notes: Humanized; also called 18D10VLv1 + 18D10VHv2
As to B5, the EC50 with human Claudin 18.2 [2] was determined as 1.68 nM.

B6: 18D10.V26 (antibody, V domains shown)
VH: QVQLQESGPGLVKPSETLSLTCTVSGGSISSNYAWNWIRQPPGKGLEWIGYIYYSGNTNYNPSLKSRVTISRDTSKNQFSLKLSSVTAADTAVYYCATSYYGNSFIYWGQGTLVTVSS
VL: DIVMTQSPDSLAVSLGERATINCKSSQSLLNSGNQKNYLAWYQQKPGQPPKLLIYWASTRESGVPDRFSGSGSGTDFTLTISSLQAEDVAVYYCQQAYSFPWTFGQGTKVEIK
notes: Humanized; also called 18D10VLv2 + 18D10VHv6
B6 registered an EC50 with human Claudin 18.2 [2] of 1.87 nM.

B7: 18D10.V21 (antibody, V domains shown)
VH: QVQLQESGPGLVKPSETLSLTCTVSGYSITSNYAWNWIRQPPGKGLEWIGYINYSGNTNYNPSLKSRVTISRDTSKNQFSLKLSSVTAADTAVYYCATSYYGNSFIYWGQGTLVTVSS
VL: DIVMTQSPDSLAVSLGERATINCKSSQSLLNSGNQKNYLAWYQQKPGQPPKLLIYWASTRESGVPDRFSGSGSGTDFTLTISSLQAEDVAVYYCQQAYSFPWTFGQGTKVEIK
notes: Humanized; also called 18D10VLv2 + 18D10VHv1
As to B7, in the assay with human Claudin 18.2 [2], the 50% effective concentration (EC50) came to 1.07 nM.

B8: 18D10.V25 (antibody, V domains shown)
VH: QVQLQESGPGLVKPSETLSLTCTVSGGSISSNYAWNWIRQPPGKGLEWIGYINYSGNTAYNPSLKSRVTISRDTSKNQFSLKLSSVTAADTAVYYCATSYYGNSFIYWGQGTLVTVSS
VL: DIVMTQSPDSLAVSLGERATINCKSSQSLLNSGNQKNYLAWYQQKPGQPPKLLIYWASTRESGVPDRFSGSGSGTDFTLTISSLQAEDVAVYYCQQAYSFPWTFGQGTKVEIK
notes: Humanized; also called 18D10VLv2 + 18D10VHv5
In the assay with human Claudin 18.2 [2], B8 gave an EC50 of 1.26 nM.

B9: 18D10.V24 (antibody, V domains shown)
VH: QVQLQESGPGLVKPSETLSLTCTVSGGSISSNYAWNWIRQPPGKGLEWIGYINYSGYTNYNPSLKSRVTISRDTSKNQFSLKLSSVTAADTAVYYCATSYYGNSFIYWGQGTLVTVSS
VL: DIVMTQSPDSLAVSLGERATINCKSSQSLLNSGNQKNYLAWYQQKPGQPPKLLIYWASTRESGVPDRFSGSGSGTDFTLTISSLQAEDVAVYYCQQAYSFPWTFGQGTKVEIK
notes: Humanized; also called 18D10VLv2 + 18D10VHv4
B9 returned a concentration giving a half-maximal response (EC50) in the assay with human Claudin 18.2 [2] of 1.93 nM.

B10: 18D10.V23 (antibody, V domains shown)
VH: QVQLQESGPGLVKPSETLSLTCTVSGGSISSNYAWNWIRQPPGKGLEWIGYINYSGNTNYNPSLKSRVTISRDTSKNQFSLKLSSVTAADTAVYYCATSYYGNSFIYWGQGTLVTVSS
VL: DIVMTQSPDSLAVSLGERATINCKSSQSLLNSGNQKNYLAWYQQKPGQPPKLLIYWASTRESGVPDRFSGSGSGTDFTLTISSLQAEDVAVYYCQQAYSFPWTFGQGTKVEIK
notes: Humanized; also called 18D10VLv2 + 18D10VHv3
In the assay with human Claudin 18.2 [2], B10 gave an EC50 of 0.982 nM.

B11: 18D10.V11 (antibody, V domains shown)
VH: QVQLQESGPGLVKPSETLSLTCTVSGYSITSNYAWNWIRQPPGKGLEWIGYINYSGNTNYNPSLKSRVTISRDTSKNQFSLKLSSVTAADTAVYYCATSYYGNSFIYWGQGTLVTVSS
VL: DIVMTQSPDSLAVSLGERATINCKSSQSLLNSGNQKNYLTWYQQKPGQPPKLLIYWASTRESGVPDRFSGSGSGTDFTLTISSLQAEDVAVYYCQNAYSFPWTFGQGTKVEIK
notes: Humanized; also called 18D10VLv1 + 18D10VHv1
The molecule B11 came in with a 50% effective concentration (EC50) in the assay with human Claudin 18.2 [2] of 1.13 nM.

B12: 18D10.V15 (antibody, V domains shown)
VH: QVQLQESGPGLVKPSETLSLTCTVSGGSISSNYAWNWIRQPPGKGLEWIGYINYSGNTAYNPSLKSRVTISRDTSKNQFSLKLSSVTAADTAVYYCATSYYGNSFIYWGQGTLVTVSS
VL: DIVMTQSPDSLAVSLGERATINCKSSQSLLNSGNQKNYLTWYQQKPGQPPKLLIYWASTRESGVPDRFSGSGSGTDFTLTISSLQAEDVAVYYCQNAYSFPWTFGQGTKVEIK
notes: Humanized; also called 18D10VLv1 + 18D10VHv5
The molecule B12 came in with an EC50 in the assay with human Claudin 18.2 [2] of 2.69 nM.

B13: 18D10.V22 (antibody, V domains shown)
VH: QVQLQESGPGLVKPSETLSLTCTVSGGSISSNYAWNWIRQPPGKGLEWMGYINYSGNTNYNPSLKSRITISRDTSKNQFSLKLSSVTAADTAVYYCATSYYGNSFIYWGQGTLVTVSS
VL: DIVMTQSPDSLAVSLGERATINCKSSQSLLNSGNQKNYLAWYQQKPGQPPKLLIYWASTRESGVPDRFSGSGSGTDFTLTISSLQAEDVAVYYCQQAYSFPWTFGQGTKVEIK
notes: Humanized; also called 18D10VLv2 + 18D10VHv2
In the case of B13, in the assay with human Claudin 18.2 [2], the EC50 amounted to 1.9 nM.

B14: 18D10.V14 (antibody, V domains shown)
VH: QVQLQESGPGLVKPSETLSLTCTVSGGSISSNYAWNWIRQPPGKGLEWIGYINYSGYTNYNPSLKSRVTISRDTSKNQFSLKLSSVTAADTAVYYCATSYYGNSFIYWGQGTLVTVSS
VL: DIVMTQSPDSLAVSLGERATINCKSSQSLLNSGNQKNYLTWYQQKPGQPPKLLIYWASTRESGVPDRFSGSGSGTDFTLTISSLQAEDVAVYYCQNAYSFPWTFGQGTKVEIK
notes: Humanized; also called 18D10VLv1 + 18D10VHv4
B14 returned an EC50 with human Claudin 18.2 [2] of 1.74 nM.

B15: 18D10.V16 (antibody, V domains shown)
VH: QVQLQESGPGLVKPSETLSLTCTVSGGSISSNYAWNWIRQPPGKGLEWIGYIYYSGNTNYNPSLKSRVTISRDTSKNQFSLKLSSVTAADTAVYYCATSYYGNSFIYWGQGTLVTVSS
VL: DIVMTQSPDSLAVSLGERATINCKSSQSLLNSGNQKNYLTWYQQKPGQPPKLLIYWASTRESGVPDRFSGSGSGTDFTLTISSLQAEDVAVYYCQNAYSFPWTFGQGTKVEIK
notes: Humanized; also called 18D10VLv1 + 18D10VHv6
Consider B15, for which the EC50 with human Claudin 18.2 [2] is 2.31 nM.

B16: h18A9.v24 (antibody, V domains shown)
VH: QVQLVQSGAEVKKPGSSVKVSCKASGYTFTNYLIDWVRQAPGQGLEWMGGINPGSGDTVYNEKFQGRVTLTADKSSMTAYMELSSLRSEDTAVYFCARRVRGNSFDSWGQGTLVTVSS
VL: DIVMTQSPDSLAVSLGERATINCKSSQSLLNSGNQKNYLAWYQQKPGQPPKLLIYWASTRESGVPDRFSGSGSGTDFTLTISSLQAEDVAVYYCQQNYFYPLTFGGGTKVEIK
notes: Humanized; also called 18A9VLv2 + 18A9VHv4
As for B16, in the assay with human Claudin 18.2 [2], a half-maximal response (EC50) required 2.06 nM.

B17: h18A9.v25 (antibody, V domains shown)
VH: QVQLVQSGAEVKKPGSSVKVSCKPSGYTFTNYLIDWVRQAPGQGLEWMGGINPGSGDTVYNEKFQGRVTITADESTSTAYMELSSLRSEDTAVYFCARRVRGNSFDSWGQGTLVTVSS
VL: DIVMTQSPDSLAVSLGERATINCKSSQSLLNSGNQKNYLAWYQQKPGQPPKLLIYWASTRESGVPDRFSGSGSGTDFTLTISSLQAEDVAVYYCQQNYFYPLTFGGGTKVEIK
notes: Humanized; also called 18A9VLv2 + 18A9VHv5
As for B17, the midpoint of the response with human Claudin 18.2 [2], the EC50, lay at 0.964 nM.

B18: h18A9.v26 (antibody, V domains shown)
VH: QVQLVQSGAEVKKPGASVKVSCKPSGYAFTNYLIDWVRQAPGQGLEWMGGINPGSGDTVYNEKFQGRVTLTADKSSSTAYMELSSLRSEDTAVYFCARRVRGNSFDSWGQGTLVTVSS
VL: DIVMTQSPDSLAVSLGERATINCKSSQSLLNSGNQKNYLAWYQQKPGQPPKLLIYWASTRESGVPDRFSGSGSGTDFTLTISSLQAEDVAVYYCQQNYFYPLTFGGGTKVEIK
notes: Humanized; also called 18A9VLv2 + 18A9VHv6
As to B18, in the assay with human Claudin 18.2 [2], the concentration giving a half-maximal response (EC50) came out at 1.41 nM.

B19: h18A9.v27 (antibody, V domains shown)
VH: QVQLVQSGAEVKKPGASVKVSCKPSGYTFTNYLIDWVRQAPGQGLEWMGGINPGSGDTVYNEKFQGRVTLTADTSTSTVYMELSSLRSEDTAVYFCARRVRGNSFDSWGQGTLVTVSS
VL: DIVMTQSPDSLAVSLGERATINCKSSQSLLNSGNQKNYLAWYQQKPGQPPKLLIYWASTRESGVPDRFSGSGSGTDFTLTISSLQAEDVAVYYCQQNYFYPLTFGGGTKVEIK
notes: Humanized; also called 18A9VLv2 + 18A9VHv7
Molecule B19 showed a concentration for a half-maximal effect (EC50) with human Claudin 18.2 [2] of 0.646 nM.

For orientation: EC50 means the concentration at which the effect is half-maximal. High values mean lower potency in that assay, low ones higher potency in that assay.
